Data reported in PMC2823288 (Nature structural & molecular biology, 2009).

Biological target: Full-length human DDB1 (human, UniProt Q16531 1-1140)
Experiment: crystal structure

Full-length human DDB1, sequence (Q16531 whole entry): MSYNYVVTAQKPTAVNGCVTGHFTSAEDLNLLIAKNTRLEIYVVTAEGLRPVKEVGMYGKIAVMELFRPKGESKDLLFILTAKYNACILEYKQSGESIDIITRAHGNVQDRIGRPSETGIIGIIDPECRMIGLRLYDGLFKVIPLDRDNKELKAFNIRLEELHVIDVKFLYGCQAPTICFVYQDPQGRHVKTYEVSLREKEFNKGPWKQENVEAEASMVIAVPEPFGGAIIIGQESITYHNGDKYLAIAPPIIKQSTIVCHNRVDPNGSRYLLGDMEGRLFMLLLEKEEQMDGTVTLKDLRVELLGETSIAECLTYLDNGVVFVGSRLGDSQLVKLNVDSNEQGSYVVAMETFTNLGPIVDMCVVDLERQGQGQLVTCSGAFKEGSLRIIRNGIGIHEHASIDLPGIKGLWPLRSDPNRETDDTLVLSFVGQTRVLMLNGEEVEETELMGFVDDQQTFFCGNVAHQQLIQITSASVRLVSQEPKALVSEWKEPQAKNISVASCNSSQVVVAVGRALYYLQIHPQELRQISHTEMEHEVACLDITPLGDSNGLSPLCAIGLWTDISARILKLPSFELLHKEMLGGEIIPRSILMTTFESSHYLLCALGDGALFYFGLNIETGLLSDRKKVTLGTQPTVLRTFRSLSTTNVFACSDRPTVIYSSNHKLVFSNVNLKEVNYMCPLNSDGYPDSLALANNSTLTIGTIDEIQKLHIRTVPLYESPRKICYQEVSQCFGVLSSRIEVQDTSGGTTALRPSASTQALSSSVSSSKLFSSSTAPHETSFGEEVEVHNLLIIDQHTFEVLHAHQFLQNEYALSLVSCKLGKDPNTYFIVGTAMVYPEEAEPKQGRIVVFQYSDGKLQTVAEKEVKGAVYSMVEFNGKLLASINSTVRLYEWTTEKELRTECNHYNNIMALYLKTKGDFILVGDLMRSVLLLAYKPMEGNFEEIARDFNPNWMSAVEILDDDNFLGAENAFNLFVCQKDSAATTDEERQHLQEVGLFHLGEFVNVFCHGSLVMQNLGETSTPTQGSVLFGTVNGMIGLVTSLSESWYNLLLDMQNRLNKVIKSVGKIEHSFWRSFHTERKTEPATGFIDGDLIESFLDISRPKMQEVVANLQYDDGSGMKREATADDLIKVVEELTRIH

binding result: binds
Binder: NITRDLIRRQIKE (peptide, UniProt Q8N5D0 5-17, looked up) [DCAF9 peptide (amino acids 5 to 17 of DCAF9/WDTC1)]
